Data from the Immune Epitope Database (IEDB).

Experiments:
Experiment in all cases: IEDB peptide-MHC binding, purified MHC/competitive/fluorescence; filed as Kd, often an IC50 or EC50 that approximates it; ≥ and ≤ were set here for values at or beyond the usual limits of such assays
Settings in all cases: source organism: human gammaherpesvirus 4
[1] = biological target: HLA-B*83:01
[2] = biological target: HLA-B*15:42
[3] = biological target: HLA-B*27:20
[4] = biological target: HLA-B*45:06
[5] = biological target: HLA-B*40:13

Sequence: AQRAAGPSV
- Kd [1]: ≥ 5 µM
- Kd [2]: 1.19 µM
- Kd [3]: 0.0007 µM
- Kd [4]: 0.0092 µM
- Kd [5]: 0.211 µM
